Laboratory results published in patent publication US20240034813A1 (Janssen / Centocor, published 2024).

What was measured:
[1] = target: T1, recombinant cMet/HGFR with c-terminal His-tag, Cy5-labeled (UniProt P08581 25-932, limits assumed, Cy5 label (reacted with Cy5 Mono NHS Ester; sites not stated)); experiment: competitive TR-FRET (Eu-amivantamab/Cy5-c-MET), EC50 ratio vs Reference Material; Ex. 2 Formulation 1 (10 mM histidine), 3 months at 25 C
T1 construct: Commercial protein; also called Cy5-c-MET; Cy5-labeled c-MET antigen; not shown: C-terminal His-tag
Source text: (§1) In this procedure, varying concentrations of unlabeled bispecific EGFR-cMet antibody sample compete with donor fluorophore (Europium (Eu) chelate) labeled bispecific EGFR-cMet antibody for binding to an acceptor fluorophore (Cy5)-labeled c-MET antigen. Excitation of the donor fluorophore results in a transfer of energy to the bound acceptor fluorophore (FRET process). The resultant FRET is detected by emission of light at 665 nm using a microplate reader capable of measuring time-resolved fluorescence. Sample dose response curves are compared to the Reference Material (RM).
(§2) c-MET Binding Materials and Methods. Certified commercial cMet, a recombinant cMet/HGFR with c-terminal His-tag is reacted with certified commercial Cy5 Mono NHS Ester to produce Cy5-labeled c-MET. Validated bispecific EGFR-cMet antibody is reacted with certified commercial Europium (Eu) chelate to produce Eu labeled bispecific EGFR-cMet antibody. […] Fluorescence is then measured by spectrophotometry at 665 nm, plotted against antibody concentration and analyzed by a four-parameter logistic model. The antibody concentration required to obtain half of the maximum fluorescence response (EC50) is determined for RM, assay control and samples. The potencies of assay control and samples are calculated based on the ratio of the sample (or control) and RM EC50 values and reported as a percentage activity relative to the RM.

[2] = target: T2, recombinant human EGFR/ErbB1/HER1 with C-terminal His tag, Cy5-labeled (human, UniProt P00533 25-645, Cy5 label (reacted with Cy5 Mono NHS Ester; sites not stated)); experiment: competitive TR-FRET (Eu-amivantamab/Cy5-EGFR), EC50 ratio vs Reference Material; Ex. 11 drug product, 6 months at 5 C
T2 construct: Commercial protein; also called Cy5-EGFR; Cy5-labeled EGFR antigen; not shown: C-terminal His tag
Source text: as §1, with “EGFR” for “c-MET”, “RM.” for “Reference Material (RM).”
as §2, with “EGFR” for “c-MET”, “EGFR,” for “cMet,”, “human EGFR/ErbB1/HER1” for “cMet/HGFR”, “C-terminal His tag” for “c-terminal His-tag”, “EGFR.” for “c-MET.”, “Eu-labeled” for “Eu labeled”

[3] = target: T2, recombinant human EGFR/ErbB1/HER1 with …; experiment: competitive TR-FRET (Eu-amivantamab/Cy5-EGFR), EC50 ratio vs Reference Material; Ex. 12 drug product with rHuPH20, 0 months, 5 C table
Source text: as §1, with “EGFR” for “c-MET”, “RM.” for “Reference Material (RM).”
as §2, with “EGFR” for “c-MET”, “EGFR,” for “cMet,”, “human EGFR/ErbB1/HER1” for “cMet/HGFR”, “C-terminal His tag” for “c-terminal His-tag”, “EGFR.” for “c-MET.”, “Eu-labeled” for “Eu labeled”

[4] = target: T2, recombinant human EGFR/ErbB1/HER1 with …; experiment: competitive TR-FRET (Eu-amivantamab/Cy5-EGFR), EC50 ratio vs Reference Material; Ex. 2 Formulation 3 (acetate), 3 months at 5 C
Source text: as §1, with “EGFR” for “c-MET”, “RM.” for “Reference Material (RM).”
as §2, with “EGFR” for “c-MET”, “EGFR,” for “cMet,”, “human EGFR/ErbB1/HER1” for “cMet/HGFR”, “C-terminal His tag” for “c-terminal His-tag”, “EGFR.” for “c-MET.”, “Eu-labeled” for “Eu labeled”

[5] = target: T1, recombinant cMet/HGFR with c-terminal …; experiment: competitive TR-FRET (Eu-amivantamab/Cy5-c-MET), EC50 ratio vs Reference Material; Ex. 12 drug product with rHuPH20, 6 months at 25 C
Source text: as §1, §2

[6] = target: T1, recombinant cMet/HGFR with c-terminal …; experiment: competitive TR-FRET (Eu-amivantamab/Cy5-c-MET), EC50 ratio vs Reference Material; Ex. 2 Formulation 3 (acetate), T0, 25 C table
Source text: as §1, §2

[7] = target: T1, recombinant cMet/HGFR with c-terminal …; experiment: competitive TR-FRET (Eu-amivantamab/Cy5-c-MET), EC50 ratio vs Reference Material; Ex. 2 Formulation 1 (10 mM histidine), 1 month at 40 C
Source text: as §1, §2

[8] = target: T2, recombinant human EGFR/ErbB1/HER1 with …; experiment: competitive TR-FRET (Eu-amivantamab/Cy5-EGFR), EC50 ratio vs Reference Material; Ex. 2 Formulation 1 (10 mM histidine), T0, 5 C table
Source text: as §1, with “EGFR” for “c-MET”, “RM.” for “Reference Material (RM).”
as §2, with “EGFR” for “c-MET”, “EGFR,” for “cMet,”, “human EGFR/ErbB1/HER1” for “cMet/HGFR”, “C-terminal His tag” for “c-terminal His-tag”, “EGFR.” for “c-MET.”, “Eu-labeled” for “Eu labeled”

B1: amivantamab (bispecific antibody, human IgG1, kappa)
heavy 1: not shown
light 1: not shown
heavy 2: not shown
light 2: DIQMTQSPSSVSASVGDRVTITCRASQGISNWLAWFQHKPGKAPKLLIYAASSLLSGVPSRFSGSGSGTDFTLTISSLQPEDFATYYCQQANSFPITFGQGTRLEIKRTVAAPSVFIFPPSDEQLKSGTASVVCLLNNFYPREAKVQWKVDNALQSGNSQESVTEQDSKDSTYSLSSTLTLSKADYEKHKVYACEVTHQGLSSPVTKSFNRGEC
notes: The samples tested were high concentration (160 mg/mL) formulations, fresh or stored or stressed; also called JNJ-61186372; bispecific EGFR-cMet antibody
B1 was tested, and the “cMET Binding % activity relative to RM” value [1] was 94%, the “EGFR Binding activity relative to Reference Material (%)” value [2] was 84% and the “EGFR Binding activity relative to Reference Material (%)” value [3] was 92%. For the same binder, the “EGFR Binding % activity relative to RM” value [4] was 87%, the “cMET Binding activity relative to Reference Material (%)” value [5] was 103% and the “cMET Binding % activity relative to RM” value [6] was 94%. For the same binder, the “cMET Binding % activity relative to RM” value [7] was 96% and the “EGFR Binding % activity relative to RM” value [8] was 103%.
